Assay results as given in patent US20160053014A1 (SORRENTO THERAPEUTICS, published 2016).
Where a chain is given by its changes, count along the chain named. “And” between values parts separate entries of the source, which are not always exact repeats. Identical values can stand only once.

B1: 52C6 (antibody, V domains shown)
VH: QVQLVESGGGLVQPGGSLRLSCAASGFTFDDYAMHWVRQAPGKGLQWVAVISHDGSAKYYADSVKGRFTISRDNAKNSLYLQMNSLRAEDTAVYYCARSRWGDNWGQGTLVTVSS
VL: SYELMQPASVSGSPGQSITISCTGTSSDVGGYNYVSWYQQHPGKAPKLMIYDVSKRPSGVSNRFSGSKSGNTASLTISGLQAEDEADYYCSSYTSSSTPYVFGTGTKLTVL
notes: tested as human IgG
B2: 14B11 (antibody, V domains shown)
VH: QVQLVESGGGVVQPGMSLRLSCAASGFTFSSHAMHWVRQAPGKGLEWVAQIWSDGSNRYYSDSVKGRFTISRDQSKNTVSLQMNSLRAEDTAVYFCARDGQSMAPYAMDVWGQGTMVTVSS
VL: DIVMTQTPLSLPVTPGEPASISCRSSQSLLHKNGNNYLDWYLQRPGQSPQLLIYLASNRASGVPDRFSGSGSGTDFTLEISRVQPEDVGVYYCMQGLQTPTFGPGTKVEIK
notes: tested as human IgG
B3: 16B7 (antibody, V domains shown)
VH: QVQLVESGAEVKKPGASVKVSCKASGYTFTSYYVHWVRQAPGQGLEWMGIINPSGGTTSYAQKFQGRVTMTRDTSTSTVYMELSSLRSEDTAVYYCVRDRRVVAATTPSAFDVWGQGTMVTVSS
VL: QSVVTQPPSVSAAPGQRVTISCSGSTSNIGSNYVSWYHQLPGTAPKLLVYHNDKRPSGIPDRFSGSKSGTSATLGITGLQTGDEADYYCGTWDSSLSVWVFGGGTKVTVL
notes: tested as human IgG
B4: PC12 (antibody, V domains shown)
VH: B3 VH with Q1E, V5L
VL: QSVVTQPPSVSAAPGQKVTISCSGSSSNIGNNYVSWYQQLPGTAPKLLIYDNNKRPSGIPDRFSGSKSGTSATLGIVGLQTGDEADYYCATWDGSLSTFLFGPGTKLTVL
notes: tested as human IgG
B5: 14C11 (antibody, V domains shown)
VH: QVQLQQSGPGLVKPSQTLSLTCAISGDTVSTNRAAWYWIRQSPSRGLEWLGRTHYRSRWLNDYAPSVKSRITINPDTSKNQFSLQLNSVTPEDTAVYYCARGAAGRAFDIWGQGTLVTVSS
VL: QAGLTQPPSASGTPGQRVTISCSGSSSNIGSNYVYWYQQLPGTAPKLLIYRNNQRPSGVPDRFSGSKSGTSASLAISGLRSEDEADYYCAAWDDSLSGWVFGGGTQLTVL
notes: tested as human IgG
B6: 11D3 (antibody, V domains shown)
VH: QVQLVQSGGGVVQPGRSLRLSCAASGFTFSNFGMHWVRQAPGKGLEWVAVISYDGSNKYYADSVKGRFTISRDNSKNTLYLQMNSLRAEDTAVYYCARNTVTYHDVWGQGTTVTVSS
VL: QPVLTQPASVSGSPGQSITISCTGTSSDVGGYNYVSWYQQHPGKAPKLMINDVSNRPSGVSSRFSGSKSGNTASLTISGLQAEDEADYYCSSYTSSSTLVFGGGTKLTVL
notes: tested as human IgG
B7: 52A10 (antibody, V domains shown)
VH: QVQLVQSGAEVKKPGASVKVSCKASGYTFTSYGISWVRQAPGQGLEWVGWISAYNGNTNYAQKLQGRVTMTTDTSTSTAYMELRSLRSDDTAVYYCARGSDYWGQGTLVTVSS
VL: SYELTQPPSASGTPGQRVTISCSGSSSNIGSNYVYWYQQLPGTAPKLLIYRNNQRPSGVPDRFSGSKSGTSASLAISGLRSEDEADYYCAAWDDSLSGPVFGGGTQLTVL
notes: tested as human IgG
B8: 15H2 (antibody, V domains shown)
VH: EVQLVESGGGVVQPGRSLRLSCAASGFTFSSYAMHWVRQAPGKGLEWVAVISYDGSKKYYADSVKGRFTISRDNSKNTLYLQMNSLRAEDTAVYYCARVGIAAAVGMDVWGQGTTVTVSS
VL: DIVMTQTPLSLPVTLGQPASISCRSSQSLVYRDGNTYLNWFQQRPGQSPRRLIYKVSNRDSGVPDRFSGSGSGTDFTLKISRVEAEDVGVYYCMQGTHWPLTFGQGTKVEI
notes: tested as human IgG; 181/182 '15H2' while the text calls the same pair '15H12'; also called 15H12
B9: 12B11 (antibody, V domains shown)
VH: EVQLVESGGGLVKPGRSLRLSCTASGFPFGDYAMSWFRQAPGKGLEWVALISYDGRNNYYADSVKGRFTISRDNSKNTLYLQMNSLRAEDTAVFYCARDRMRGPGGRFYYYHAMDVWGQGTTVTVSS
VL: SYELMQPPSVSRGLRQTATLTCAGTRNDVGNEGASWLQQHQGHPPKLLSYRDTNRPSGISDRFSASRSGNTASLTISGLQPEDEADYYCSAWDSSLRAWVFGGGTKLTVL
notes: tested as human IgG; also called 14E10
B10: 16A8 (antibody, V domains shown)
VH: QVQLVESGGGVVQPGRSLRLSCAASGFTFSNYGMHWVRQAPGKGLEWVATISYDGSNNYYAASVKGRFTVSRDNSTLYLQMNSLRAEDTAVYYCAGAIAAAGVWGQGTLVTVSS
VL: LPVLTQPASVSGSPGQSITISCTGTSSDVGGYNYVSWYQQHPGKAPKLMIYDVSNRPSGVSDRFSGSKSGNTASLNISGLQPDDEAEYYCSSYRTKNTLVFGGGTKLTVL
notes: tested as human IgG
B11: 52B10 (antibody, V domains shown)
VH: EVQLLESGGGLVQPGGSLRLSCAGSESTFGDSWLNWVRQAPGKGLEWVANINKDGSKKEYVESVKGRFTISRDNAKKSVYLQMNSLRVEDTAVYYCLLKGVWGQGTLVTVSS
VL: AIQLTQSPSFLSASVGDRVTITCRASQGISSYLAWYQQKPGKAPKLLIYAASTLQSGVPSRFSGSGSGTEFTLTISSLQPEDFATYYCQQLNSYPITFGPGTKVDIK
notes: tested as human IgG
B12: 14D9 (antibody, V domains shown)
VH: EVQLVESGGGVVQPGRSLRLSCAASGFTFSSYAMHWVRQAPGKGLEWVAVISYDGSNKYYADSVKGRFTISRDNSKNTLYLQMNSLRAEDTAVYYCARSAWLDSWGQGTLVTVSS
VL: QAGLTQPHSVSGSPGQSVTISCTGTSSDVGSYNHVSWYQQHPGKAPKLMIYDVSKRPSGVSNRFSGSKSGNTASLTISGLQAEDEADYYCSSYTSSSTYVFGTGTKVTVL
notes: tested as human IgG
B13: 11F3 (antibody, V domains shown)
VH: QVQLVESGGGVVQPGRSLRLYCAASGFIFSSYAIHWVRQAPGKGLEWVAVISYDGSKKYYADSVEGRFTISRDNSKNSLYLQMNSLRVDDTAVYYCAAHRQLGYWGQGTLVTVSS
VL: B6 VL with P2S, A8P, V10A, I18V, N51Y, N55K, S62N
notes: tested as human IgG
B14: 16E3 (antibody, V domains shown)
VH: QVQLVESGGGVVQPGRSLRLSCAASGFTFSSNGMHWVRQAPGKGLEWVAAISYNGRNQYYADSLKGRFTISRDNSKNSLYLQMNSLRAEDTAVYYCATPAATLDYWGQGTLVTVSS
VL: B6 VL with P2S, Q40H, N51Y, S54T, N55Y, S62N, G103T, L107V
notes: tested as human IgG
B15: 13G9 (antibody, V domains shown)
VH: EVQLVESGGGVVQPGRSLRLSCAASGFTFSRYGMHWVRQSPGKGLEWVAGISYDGSDKYYADSVKGRFTISRANSKNTLFLQMNSLRAEDTAVYYCARARGLDYWGQGTTVTVSS
VL: QAVLTQPASVSGSPGQSITISCTGTSSDIGSYNLVSWYQQHPGKAPKLIIYEVNKRPSGVSNRFSGSKSGNTASLTISGLQAEDEADYYCSSYRSINTVVFGGGTQLTVL
notes: tested as human IgG
B16: 14D7 (antibody, V domains shown)
VH: QVQLVQSGGGVVQPGRSLRLSCAASGFTFSSYGMHWVRQAPGKGLEWVAVISYDGSNKYYADSVKGRFTISRDNSKNTLYLQMNSLRAEDTAVYYCAKWGRRGAPDYWGQGTLVTVSS
VL: ETTLTQSPGTLSVSPGERATLSCRASQSVSSNLAWYQQKPGQAPRLLIYGASTRATGIPARFSGSGSGTDFTLTISSLEPEDFAVYYCQQRNNWPLTFGGGTKVEIK
notes: tested as human IgG
B17: 14F11 (antibody, V domains shown)
VH: EVQLVQSGAEVKKPGASVKVSCKASGSTFTNYYIHWVRQAPGQGLEWMGIINPSGGSIGSPQKFQGRVTMTRDTSTNTVYMELSSLRSEDTAVYYCASRSFGNDGVFDIWGQGTMVTVSS
VL: LPVLTQPRSVSGSPRQSVTISCTGTSSDVGGYNYVSWYQQHPGKAPKLMIYDVSKRPSGVPDRFSGSKSGNTASLTISGLQAEDEAHYYCKSYTTSRTWVFGGGTKLTVL
notes: tested as human IgG

What follows are binders tested against T1, human CXCR5 (human, UniProt P32302 1-372) (assay: flow cytometry on CHO-CXCR5 cells, IgG titration).
T1 construct: whole, on cells; also called hu-CHO; CHO-CXCR5 cells
T1 sequence (looked up): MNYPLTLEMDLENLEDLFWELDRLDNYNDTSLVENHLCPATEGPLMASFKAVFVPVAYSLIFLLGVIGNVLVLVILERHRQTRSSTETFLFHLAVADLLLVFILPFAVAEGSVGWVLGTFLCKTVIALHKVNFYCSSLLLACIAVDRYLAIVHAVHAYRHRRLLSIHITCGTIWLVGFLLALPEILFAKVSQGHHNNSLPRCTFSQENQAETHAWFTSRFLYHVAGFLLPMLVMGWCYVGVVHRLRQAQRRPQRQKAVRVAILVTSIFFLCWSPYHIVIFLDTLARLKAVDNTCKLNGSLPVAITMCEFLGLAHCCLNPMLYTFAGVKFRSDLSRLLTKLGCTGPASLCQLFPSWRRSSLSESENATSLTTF
Description: This example describes a cellular binding assay to determine the EC₅₀ for anti-CXCR5 antibodies binding to human CXCR5. […] In this example, CHO-CXCR5 cells were lifted from culture flasks using non-enzymatic Cell Dissociation Buffer—PBS based (Life Technologies #13151-014). Cells were resuspended in FACS Buffer (2% Fetal Bovine Serum in PBS) at 1×10⁶ cells/ml and […] were aliquoted into the wells of a 96-well plate. Plated cells were spun down and the supernatant discarded. Cells were resuspended in 30 μl FACS Buffer serially diluted concentrations of CXCR5 IgG in triplicate. Plates were incubated for 1 hr at 4° C. and then washed 2× with FACS Buffer. Cells were resuspended in 50 μl goat anti-human IgG (γ-chain specific)-PE conjugated secondary antibody (Southern Biotech #2040-09) diluted 1:500 in FACS Buffer. Cells were further incubated for 30 min at 4° C. and then washed 1× with FACS Buffer. The cells were resuspended in a final volume of 30 μl FACS Buffer and analyzed using the Intellicyt Flow Cytometer. Median fluorescence in the FL-2H channel was determined using FlowJo software and EC₅₀ value was determined by plotting the data in GraphPad Prism and analyzing using a variable slope non-linear regression.

Question: With B1 as the binder, how does the EC50 read?
Answer: The EC50 was 3 nM and 2.8 nM.

Question: B2 was tested. Which EC50 did it give?
Answer: Its EC50 is 10 nM.

Question: For B3, which EC50 is on record?
Answer: The EC50 was 88 nM.

Question: How did the EC50 turn out when B4 was run?
Answer: Its EC50 is 4.2 nM.

Question: How did the EC50 turn out when B5 was run?
Answer: Its EC50 is 21 nM.

Question: How did the EC50 turn out when B6 was run?
Answer: The EC50 was 2.7 nM.

Question: Which EC50 does the source give for B7 here?
Answer: The EC50 was 0.5 nM and 0.54 nM.

Question: How did the EC50 turn out when B8 was run?
Answer: Its EC50 is 6.1 nM.

Question: How did the EC50 turn out when B9 was run?
Answer: Its EC50 is 53 nM and 57 nM.

Question: How did the EC50 turn out when B10 was run?
Answer: Its EC50 is 2.3 nM.

Question: For B11, which EC50 is on record?
Answer: Its EC50 is 0.5 nM and 0.46 nM.

Question: With B12 as the binder, how does the EC50 read?
Answer: The EC50 was 22 nM.

Question: For B13, which EC50 is on record?
Answer: Its EC50 is 13 nM.

Question: Which EC50 does the source give for B14 here?
Answer: Its EC50 is 250 nM.

Question: For B15, which EC50 is on record?
Answer: The EC50 was 3 nM.

Question: How did the EC50 turn out when B16 was run?
Answer: Its EC50 is 4 nM.

Question: With B17 as the binder, how does the EC50 read?
Answer: The EC50 was 3.8 nM.
